Measurements: article PMC10457309

Molecular target: HH-120 (IgM-like hACE2-Fc fusion protein) (UniProt Q9BYF1)
Assay: SPR

SARS-CoV-2 RBD (amino acids 316-512 of the S protein in the SARS-CoV-2 D614 strain) (from UniProt P0DTC2 316-512) (domain or fragment)
Kd: 26.4 nM
